In patent publication US20230174626A1:

Experiments:
[1] = molecular target: HCMV Pentamer protein complex (gH/gL/UL128/UL130/UL131A) (Human Cytomegalovirus (HCMV)); experiment: SPR Biacore 8K+, single-cycle kinetics, IgG captured on Protein A chip, Pentamer as analyte, 1:1 fit
[2] = molecular target: HCMV gH/gL/gO protein complex (Human Cytomegalovirus (HCMV)); experiment: SPR Biacore 8K+, single-cycle kinetics, IgG captured on Protein A chip, gH/gL/gO as analyte, 1:1 fit

Chain of HCMV Pentamer protein complex (gH/gL/UL128/UL130/UL131A) (Human Cytomegalovirus (HCMV)) (Q6SW67 24-719, chain 1 of 4): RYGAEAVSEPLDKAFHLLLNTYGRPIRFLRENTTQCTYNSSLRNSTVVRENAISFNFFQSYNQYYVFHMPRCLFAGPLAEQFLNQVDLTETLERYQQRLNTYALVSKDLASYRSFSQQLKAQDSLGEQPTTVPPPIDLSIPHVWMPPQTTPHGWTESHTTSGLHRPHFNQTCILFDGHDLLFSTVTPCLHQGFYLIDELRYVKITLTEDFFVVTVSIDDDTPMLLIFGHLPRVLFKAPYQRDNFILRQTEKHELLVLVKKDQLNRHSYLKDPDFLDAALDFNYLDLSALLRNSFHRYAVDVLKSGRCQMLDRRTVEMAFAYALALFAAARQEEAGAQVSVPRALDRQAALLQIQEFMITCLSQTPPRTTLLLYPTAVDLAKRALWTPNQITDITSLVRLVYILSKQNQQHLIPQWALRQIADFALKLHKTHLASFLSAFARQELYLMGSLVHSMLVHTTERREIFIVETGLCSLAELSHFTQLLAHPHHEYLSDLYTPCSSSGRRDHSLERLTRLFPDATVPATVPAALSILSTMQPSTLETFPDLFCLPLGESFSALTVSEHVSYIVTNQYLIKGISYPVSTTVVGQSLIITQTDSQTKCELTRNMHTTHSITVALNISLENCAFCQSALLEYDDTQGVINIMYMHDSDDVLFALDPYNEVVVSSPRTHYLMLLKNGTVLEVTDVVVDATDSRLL
Chain of HCMV Pentamer protein complex (gH/gL/UL128/UL130/UL131A) (Human Cytomegalovirus (HCMV)) (F5HCH8 31-278, chain 2 of 4, further chain): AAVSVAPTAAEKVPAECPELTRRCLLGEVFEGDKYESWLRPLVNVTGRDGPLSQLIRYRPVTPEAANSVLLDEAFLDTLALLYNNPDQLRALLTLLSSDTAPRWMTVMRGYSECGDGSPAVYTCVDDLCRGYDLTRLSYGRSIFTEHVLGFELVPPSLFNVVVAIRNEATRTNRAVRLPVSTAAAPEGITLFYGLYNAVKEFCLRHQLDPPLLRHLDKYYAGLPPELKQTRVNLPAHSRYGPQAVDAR
Chain of HCMV Pentamer protein complex (gH/gL/UL128/UL130/UL131A) (Human Cytomegalovirus (HCMV)) (P16837 28-171, chain 3 of 4, further chain): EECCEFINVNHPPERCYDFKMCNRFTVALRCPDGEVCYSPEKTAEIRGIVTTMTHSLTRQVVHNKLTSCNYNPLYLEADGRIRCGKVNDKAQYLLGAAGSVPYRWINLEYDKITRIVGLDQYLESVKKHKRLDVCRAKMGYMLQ
Chain of HCMV Pentamer protein complex (gH/gL/UL128/UL130/UL131A) (Human Cytomegalovirus (HCMV)) (F5HCP3 26-214, chain 4 of 4, further chain): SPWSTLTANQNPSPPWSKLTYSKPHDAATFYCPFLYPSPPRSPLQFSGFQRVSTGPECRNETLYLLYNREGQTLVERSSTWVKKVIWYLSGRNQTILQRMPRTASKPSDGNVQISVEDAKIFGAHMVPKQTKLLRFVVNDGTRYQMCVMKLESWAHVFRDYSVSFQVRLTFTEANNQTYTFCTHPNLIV

B1: humanized 2C7 mAb (antibody, human IgG1, kappa, V domains shown)
VH: EVQLQQSGPELEKPGASVKISCKASGYSFTGYNMNWVKQSNGKSLEWIGNIDPYFGGTSYNQKFKGKATLTVDKSSSTAYMELKSLTSEDSAVYYCARHYGYFPWFAYWGQGTLVTVSA
VL: DIVLTQSPASLAVSLGQRATISCRASESVDSSGNSFMHWYQQKPGQPPKLLIYRASNLESGIPARFSGSGSRTDFTLTINPVGADDVATYYCQQSNEDPWTFGGGTKLEIKR
[1]
  Kd: 0.721 nM
  koff: 0.000322 s⁻¹
  kon: 447000 M⁻¹ s⁻¹
[2]
  Kd: 1 nM
  koff: 0.000416 s⁻¹
  kon: 415000 M⁻¹ s⁻¹

B2: humanized 23C2 mAb (antibody, human IgG1, kappa, V domains shown)
VH: DVQLQESGPGLVKPSQSLSLTCSVTGYSIKSGYYWNWIRQFPGNKLEWMGYISYGGDFTYNPSLKNRISITRDTSKNQFFLKLNSVTTEDTATYFCVREPNWESYFDIWGAGTTVTVSS
VL: DIQMTQSPASLSASVGETVTITCRASDNIYSYLTWYHQKQGKSPHLLVYNAKTLPEGVPLRFSGTGSGTQFSLKINSLQPEDFGIYFCLHDYGFPRTFGGGTILEVKR
[1]
  Kd: 1.03 nM
  koff: 0.000285 s⁻¹
  kon: 275000 M⁻¹ s⁻¹

B3: humanized 26B6 mAb (antibody, human IgG1, kappa, V domains shown)
VH: EVQLVESGGGLVKPGGSLKLSCAASGFTITDYYIYWLRQTPEKKLEWVAAISDGGRYTDYPDSVKGRFTMSSDNAKTNLYLQMGSLQSDDTGMYYCARWASYGYHWYFDVWGAGTTVTVSS
VL: DIQMTQTTSSLSASLGDRVTISCSASQDISNYINWYQQKRDGTVKLLIYDSSSLHSGVPSRFSGSGSGTDYSLTISNLEPEDFATYFCQQYSNLPPTFGGGTNLEIKR
[1]
  Kd: 0.123 nM
  koff: 5.3e-05 s⁻¹
  kon: 432000 M⁻¹ s⁻¹
